Test results from publication doi:10.1101/2023.10.06.561273, “Bacterial cell surface nanoenvironment requires a specialized chaperone to activate a peptidoglycan biosynthetic enzyme” (bioRxiv, 2023).

Molecular target: the molecule itself
Assay: SEC; renatured SpoVK-His6 on Superdex 200 Increase in renaturation buffer (500 mM L-arginine, 100 mM NaCl, pH 7.5), 0.75 ml/min; final peak

B1: SpoVK-His6 (enzyme, B. subtilis, UniProt P27643 1-322, looked up)
chain: MLERAVTYKNNGQINIILNGQKQVLTNAEAEAEYQAALQKNEAKHGILKEIEKEMSALVGMEEMKRNIKEIYAWIFVNQKRAEQGLKVGKQALHMMFKGNPGTGKTTVARLIGKLFFEMNVLSKGHLIEAERADLVGEYIGHTAQKTRDLIKKSLGGILFIDEAYSLARGGEKDFGKEAIDTLVKHMEDKQHEFILILAGYSREMDHFLSLNPGLQSRFPISIDFPDYSVTQLMEIAKRMIDEREYQLSQEAEWKLKDYLMTVKSTTSPIKFSNGRFVRNVIEKSIRAQAMRLLMGDQYLKSDLMTIKSQDLSIKEEASGSA
notes: SpoVK, AAA+ ATPase of Bacillus subtilis; also called purified SpoVK
stoichiometry N: ~3
